Among the targets are MMP13 (human, UniProt P45452 104-471, limits assumed); Elastase; MMP8 (human, UniProt P22894 101-467, limits assumed); MMP9 (human, UniProt P14780 107-707, limits assumed); MMP3 (human, UniProt P08254 100-477, limits assumed).
Common to all, as to assay: cell-based or functional assay
The next assay has as its target T1, MMP2 (human, UniProt P08253 110-660, limits assumed).
T1 sequence (looked up): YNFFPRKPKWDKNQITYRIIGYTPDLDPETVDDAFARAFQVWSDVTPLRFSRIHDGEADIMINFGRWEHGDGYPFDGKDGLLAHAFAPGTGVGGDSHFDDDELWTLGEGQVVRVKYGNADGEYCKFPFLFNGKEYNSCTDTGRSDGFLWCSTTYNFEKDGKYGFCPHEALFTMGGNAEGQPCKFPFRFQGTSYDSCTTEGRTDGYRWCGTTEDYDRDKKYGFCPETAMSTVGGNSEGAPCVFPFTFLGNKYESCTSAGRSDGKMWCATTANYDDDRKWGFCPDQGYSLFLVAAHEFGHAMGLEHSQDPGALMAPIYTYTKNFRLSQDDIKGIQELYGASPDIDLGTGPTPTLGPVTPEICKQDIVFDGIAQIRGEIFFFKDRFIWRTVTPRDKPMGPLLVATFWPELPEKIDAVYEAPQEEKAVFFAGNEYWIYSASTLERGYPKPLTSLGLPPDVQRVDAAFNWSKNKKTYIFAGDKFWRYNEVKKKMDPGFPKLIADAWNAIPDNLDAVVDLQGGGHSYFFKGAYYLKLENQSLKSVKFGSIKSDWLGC

In another assay the target is T2, ADAMTS5 (human, UniProt Q9UNA0 262-622, limits assumed).
T2 sequence (looked up): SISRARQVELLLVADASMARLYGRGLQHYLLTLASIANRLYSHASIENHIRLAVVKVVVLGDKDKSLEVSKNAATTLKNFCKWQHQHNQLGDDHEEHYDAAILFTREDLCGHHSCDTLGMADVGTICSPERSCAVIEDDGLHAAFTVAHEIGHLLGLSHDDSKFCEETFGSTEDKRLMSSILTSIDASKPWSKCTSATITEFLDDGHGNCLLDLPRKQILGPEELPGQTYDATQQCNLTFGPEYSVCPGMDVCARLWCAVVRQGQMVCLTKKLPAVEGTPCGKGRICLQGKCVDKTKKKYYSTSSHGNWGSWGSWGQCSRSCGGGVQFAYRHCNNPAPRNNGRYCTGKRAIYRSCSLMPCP

For a further assay, the target named is T3, Cathepsin G (UniProt P08311 21-244).
T3 sequence (looked up): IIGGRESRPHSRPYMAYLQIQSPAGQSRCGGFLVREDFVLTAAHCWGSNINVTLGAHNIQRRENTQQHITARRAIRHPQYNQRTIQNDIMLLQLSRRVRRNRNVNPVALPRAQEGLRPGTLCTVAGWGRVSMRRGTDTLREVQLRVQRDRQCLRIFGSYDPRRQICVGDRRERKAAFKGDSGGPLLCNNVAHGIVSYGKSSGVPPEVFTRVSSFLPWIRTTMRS

The next assay concerns the target T4, MMP1 (human, UniProt P03956 100-469, limits assumed).
T4 sequence (looked up): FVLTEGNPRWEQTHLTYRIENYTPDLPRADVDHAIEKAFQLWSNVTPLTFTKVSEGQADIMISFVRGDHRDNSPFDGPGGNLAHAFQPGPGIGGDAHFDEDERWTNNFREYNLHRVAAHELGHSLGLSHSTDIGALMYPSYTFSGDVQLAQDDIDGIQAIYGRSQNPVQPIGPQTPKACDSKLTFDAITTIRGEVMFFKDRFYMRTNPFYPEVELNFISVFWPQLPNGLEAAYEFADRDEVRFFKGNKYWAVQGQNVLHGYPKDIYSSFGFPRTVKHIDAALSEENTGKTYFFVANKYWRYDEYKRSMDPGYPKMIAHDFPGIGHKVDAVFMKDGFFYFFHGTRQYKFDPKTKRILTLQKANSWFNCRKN

For another assay, the target named is T5, MMP7 (UniProt P09237 95-267, limits assumed).
T5 sequence (looked up): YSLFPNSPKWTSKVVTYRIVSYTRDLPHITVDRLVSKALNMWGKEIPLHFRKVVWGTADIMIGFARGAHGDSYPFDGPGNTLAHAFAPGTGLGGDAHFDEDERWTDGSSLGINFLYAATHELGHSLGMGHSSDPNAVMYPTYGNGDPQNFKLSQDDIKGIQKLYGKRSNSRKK

Experimental findings from US20230250154A1 (CYTONICS, published 2023) are described below.

Sequence of MMP8 (P22894 101-467 limits assumed): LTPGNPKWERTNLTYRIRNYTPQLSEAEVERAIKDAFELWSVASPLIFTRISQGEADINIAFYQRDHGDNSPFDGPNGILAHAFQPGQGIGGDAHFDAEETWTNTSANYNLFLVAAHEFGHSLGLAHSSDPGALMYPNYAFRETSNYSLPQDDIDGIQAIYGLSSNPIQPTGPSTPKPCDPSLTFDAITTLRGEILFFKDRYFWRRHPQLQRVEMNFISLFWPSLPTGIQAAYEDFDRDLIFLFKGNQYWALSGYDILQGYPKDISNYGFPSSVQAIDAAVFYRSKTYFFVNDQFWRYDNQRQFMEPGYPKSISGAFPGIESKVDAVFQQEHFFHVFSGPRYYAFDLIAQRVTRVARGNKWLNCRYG
Sequence of MMP9 (P14780 107-707 limits assumed): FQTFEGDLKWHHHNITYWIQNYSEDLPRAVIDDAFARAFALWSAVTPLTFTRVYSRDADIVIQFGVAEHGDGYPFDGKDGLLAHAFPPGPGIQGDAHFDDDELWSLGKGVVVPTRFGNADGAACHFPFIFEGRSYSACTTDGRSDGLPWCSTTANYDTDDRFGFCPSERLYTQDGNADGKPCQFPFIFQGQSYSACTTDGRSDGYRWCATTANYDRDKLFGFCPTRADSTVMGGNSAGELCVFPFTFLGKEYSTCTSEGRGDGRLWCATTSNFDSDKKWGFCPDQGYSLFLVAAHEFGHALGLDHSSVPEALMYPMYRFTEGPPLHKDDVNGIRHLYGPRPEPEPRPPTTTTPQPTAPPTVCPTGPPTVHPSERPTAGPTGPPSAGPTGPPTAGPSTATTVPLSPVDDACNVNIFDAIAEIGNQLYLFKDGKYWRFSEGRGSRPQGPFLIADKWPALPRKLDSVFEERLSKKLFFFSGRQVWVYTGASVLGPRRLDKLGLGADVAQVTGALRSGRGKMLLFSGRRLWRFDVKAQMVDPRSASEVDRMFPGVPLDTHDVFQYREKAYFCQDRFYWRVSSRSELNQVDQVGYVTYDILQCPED
Sequence of MMP3 (P08254 100-477 limits assumed): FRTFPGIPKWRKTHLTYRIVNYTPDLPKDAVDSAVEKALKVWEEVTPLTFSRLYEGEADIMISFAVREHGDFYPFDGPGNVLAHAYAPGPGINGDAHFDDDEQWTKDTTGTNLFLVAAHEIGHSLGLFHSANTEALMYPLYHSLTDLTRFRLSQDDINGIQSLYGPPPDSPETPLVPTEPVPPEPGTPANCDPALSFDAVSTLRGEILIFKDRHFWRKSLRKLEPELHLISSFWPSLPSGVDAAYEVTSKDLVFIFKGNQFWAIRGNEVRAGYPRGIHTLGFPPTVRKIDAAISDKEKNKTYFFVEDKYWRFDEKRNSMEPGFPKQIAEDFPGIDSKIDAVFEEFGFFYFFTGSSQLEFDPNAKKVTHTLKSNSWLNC

B1: Variant A2M, bait region SEQ ID NO 16 (other)
chain: SVSGKPQYMVLVPSLLHTETTEKGCVLLSYLNETVTVSASLESVRGNRSLFTDLEAENDVLHCVAFAVPKSSSNEEVMFLTVQVKGPTQEFKKRTTVMVKNEDSLVFVQTDKSIYKPGQTVKFRVVSMDENFHPLNELIPLVYIQDPKGNRIAQWQSFQLEGGLKQFSFPLSSEPFQGSYKVVVQKKSGGRTEHPFTVEEFVLPKFEVQVTVPKIITILEEEMNVSVCGLYTYGKPVPGHVTVSICRKYSDASDCHGEDSQAFCEKFSGQLNSHGCFYQQVKTKVFQLKRKEYEMKLHTEAQIQEEGTVVELTGRQSSEITRTITKLSFVKVDSHFRQGIPFFGQVRLVDGKGVPIPNKVIFIRGNEANYYSNATTDEHGLVQFSINTTNVMGTSLTVRVNYKDRSPCYGYQWVSEEHEEAHHTAYLVFSPSKSFVHLEPMSHELPCGHTQTVQAHYILNGGTLLGLKKLSFYYLIMAKGGIVRTGTHGLLVKQEDMKGHFSISIPVKSDIAPVARLLIYAVLPTGDVIGDSAKYDVENCLANKVDLSFSPSQSLPASHAHLRVTAAPQSVCALRAVDQSVLLMKPDAELSASSVYNLLPEKDLTGFPGPLNDQDDEDCINRHNVYINGITYTPVSSTNEKDMYSFLEDMGLKAFTNSKIRKPKMCPQLEHGPEFRGVTRYLTAIPENFYGVSELEGRGSSEDLVVQIVEEPHTKLRKYFPETWIWDLVVVNSAGVAEVGVTVPDTITEWKAGAFCLSEDAGLGISSTASLRAFQPFFVELTMPYSVIRGEAFTLKATVLNYLPKCIRVSVQLEASPAFLAVPVEKEQAPHCICANGRQTVSWAVTPKSLGNVNFTVSAEALESQELCGTEVPSVPEHGRKDTVIKPLLVEPEGLEKETTFNSLLCPSGGEVSEELSLKLPPNVVEESARASVSVLGDILGSAMQNTQNLLQMPYGCGEQNMVLFAPNIYVLDYLNETQQLTPEIKSKAIGYLNTGYQRQLNYKHYDGSYSTFGERYGRNQGNTWLTAFVLKTFAQARAYIFIDEAHITQALIWLSQRQKDNGCFRSSGSLLNNAIKGGVEDEVTLSAYITIALLEIPLTVTHPVVRNALFCLESAWKTAQEGDHGSHVYTKALLAYAFALAGNQDKRKEVLKSLNEEAVKKDNSVHWERPQKPKAPVGHFYEPQAPSAEVEMTSYVLLAYLTAQPAPTSEDLTSATNIVKWITKQQNAQGGFSSTQDTVVALHALSKYGAATFTRTGKAAQVTIQSSGTFSSKFQVDNNNRLLLQQVSLPELPGEYSMKVTGEGCVYLQTSLKYNILPEKEEFPFALGVQTLPQTCDEPKAHTSFQISLSVSYTGSRSASNMAIVDVKMVSGFIPLKPTVKMLERSNHVSRTEVSSNHVLIYLDKVSNQTLSLFFTVLQDVPVRDLKPAIVKVYDYYETDEFAIAEYNAPCSKDLGNADYKDDDDKGASHHHHHH
For B1, the “Protease Inhibition (% of WT)” value in the assay with MMP2 was 92 % of WT; with ADAMTS5 it was 305 % of WT; with MMP13 it was 104 % of WT; with Cathepsin G, 105 % of WT; with MMP1, 101 % of WT; with Elastase it was 91 % of WT. Besides, the “Protease Inhibition (% of WT)” value with MMP7 was 105 % of WT; in the assay with MMP8, 92 % of WT; with MMP9, 84 % of WT; with MMP3 it was 180 % of WT.

B2: Variant A2M, bait region SEQ ID NO 18 (other)
chain: SVSGKPQYMVLVPSLLHTETTEKGCVLLSYLNETVTVSASLESVRGNRSLFTDLEAENDVLHCVAFAVPKSSSNEEVMFLTVQVKGPTQEFKKRTTVMVKNEDSLVFVQTDKSIYKPGQTVKFRVVSMDENFHPLNELIPLVYIQDPKGNRIAQWQSFQLEGGLKQFSFPLSSEPFQGSYKVVVQKKSGGRTEHPFTVEEFVLPKFEVQVTVPKIITILEEEMNVSVCGLYTYGKPVPGHVTVSICRKYSDASDCHGEDSQAFCEKFSGQLNSHGCFYQQVKTKVFQLKRKEYEMKLHTEAQIQEEGTVVELTGRQSSEITRTITKLSFVKVDSHFRQGIPFFGQVRLVDGKGVPIPNKVIFIRGNEANYYSNATTDEHGLVQFSINTTNVMGTSLTVRVNYKDRSPCYGYQWVSEEHEEAHHTAYLVFSPSKSFVHLEPMSHELPCGHTQTVQAHYILNGGTLLGLKKLSFYYLIMAKGGIVRTGTHGLLVKQEDMKGHFSISIPVKSDIAPVARLLIYAVLPTGDVIGDSAKYDVENCLANKVDLSFSPSQSLPASHAHLRVTAAPQSVCALRAVDQSVLLMKPDAELSASSVYNLLPEKDLTGFPGPLNDQDDEDCINRHNVYINGITYTPVSSTNEKDMYSFLEDMGLKAFTNSKIRKPKMCPQLEHGPIPENFYGLEGEGEGEGEAIPMSIPRYLTAEFRGVTVEEPHTKLRKYFPETWIWDLVVVNSAGVAEVGVTVPDTITEWKAGAFCLSEDAGLGISSTASLRAFQPFFVELTMPYSVIRGEAFTLKATVLNYLPKCIRVSVQLEASPAFLAVPVEKEQAPHCICANGRQTVSWAVTPKSLGNVNFTVSAEALESQELCGTEVPSVPEHGRKDTVIKPLLVEPEGLEKETTFNSLLCPSGGEVSEELSLKLPPNVVEESARASVSVLGDILGSAMQNTQNLLQMPYGCGEQNMVLFAPNIYVLDYLNETQQLTPEIKSKAIGYLNTGYQRQLNYKHYDGSYSTFGERYGRNQGNTWLTAFVLKTFAQARAYIFIDEAHITQALIWLSQRQKDNGCFRSSGSLLNNAIKGGVEDEVTLSAYITIALLEIPLTVTHPVVRNALFCLESAWKTAQEGDHGSHVYTKALLAYAFALAGNQDKRKEVLKSLNEEAVKKDNSVHWERPQKPKAPVGHFYEPQAPSAEVEMTSYVLLAYLTAQPAPTSEDLTSATNIVKWITKQQNAQGGFSSTQDTVVALHALSKYGAATFTRTGKAAQVTIQSSGTFSSKFQVDNNNRLLLQQVSLPELPGEYSMKVTGEGCVYLQTSLKYNILPEKEEFPFALGVQTLPQTCDEPKAHTSFQISLSVSYTGSRSASNMAIVDVKMVSGFIPLKPTVKMLERSNHVSRTEVSSNHVLIYLDKVSNQTLSLFFTVLQDVPVRDLKPAIVKVYDYYETDEFAIAEYNAPCSKDLGNADYKDDDDKGASHHHHHH
On to B2, for which the “Protease Inhibition (% of WT)” value with MMP2 is 58 % of WT; with ADAMTS5, 154 % of WT; with MMP13 it was 117 % of WT; with Cathepsin G, 83 % of WT; with MMP1, 91 % of WT; with Elastase it was 86 % of WT. For the same molecule, the “Protease Inhibition (% of WT)” value with MMP7 was 102 % of WT; with MMP8, 82 % of WT; with MMP9, 53 % of WT; with MMP3, 38 % of WT.
